Source: publication PMC10391610, “Survivin prevents the polycomb repressor complex 2 from methylating histone 3 lysine 27” (iScience, 2023)

B1: JARID2_(170-194) peptide (peptide)
peptide: PNSMVYFGSSQDEEEVEEEDDETED
notes: source: synthetic peptide, bought: Biomatik (purified to 95%)
B2: EZH2_(172-211) peptide (peptide)
peptide: VELVNALGQYNDDDDDDDGDDPEEREEKQKDLEDHRDDKE
notes: as for B1
B3: EED_(128-152) peptide (peptide)
peptide: SQGEIRLLQSYVDADADENFYTCAW
notes: embryonic ectoderm development (EED), residues 128-152; source: synthetic peptide, bought: Biomatik (purified to 95%)
B4: SUZ12_(573-597) peptide (peptide)
peptide: PLRPQEMEVDSEDEKDPEWLREKTI
notes: suppressor of zeste 12 (SUZ12), residues 573-597; source: synthetic peptide, bought: Biomatik (purified to 95%)

Molecular target: T1, survivin (His-tagged, from pHIS8) (human, UniProt O15392 1-142)
T1 construct: survivin, human, residues 1-142 (142 amino acids), called the full-length construct; plasmid pHis8-survivin obtained from the Verdecia lab (doi 10.1038/76838); The tag is detected by the anti-His antibody on the microarray; For NMR the protein was uniformly 15N labelled (M9 medium); For MST one copy was labelled with the GREEN-MALEIMIDE (cysteine reactive) dye; also called survivin_(1-142); …
T1 sequence (O15392 whole entry, the tested form may be a part): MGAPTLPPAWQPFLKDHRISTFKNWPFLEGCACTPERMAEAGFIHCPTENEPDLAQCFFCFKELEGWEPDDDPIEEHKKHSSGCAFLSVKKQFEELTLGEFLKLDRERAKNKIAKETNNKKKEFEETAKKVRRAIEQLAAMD
Assay: NMR titration; peptides titrated into [U-15N]-survivin (0.3 mM); 2D [15N,1H]-SOFAST-HMQC; NMR buffer (50 mM Tris, 150 mM NaCl, 1 mM DTT, pH 7.5), 298 K; global signal attenuation fitted with a logistic function (critical peptide concentration, cpc)
Settings: both partners purified

Binder | NMR cpc (critical peptide concentration)
B1 | 0.0085 µM
B2 | 0.0021 µM
B3 | 0.0076 µM
B4 | 0.0066 µM
